The source of these data is patent US20110256127A1 (Genentech, published 2011).

“And” between values parts separate entries of the source, which are not always exact repeats. Equal values may be shown once.

The target in test [1] is T1, LRP6 (human; form used in the assay not stated) (human, UniProt O75581 20-1253, limits assumed).
T1 construct: probably an E3-E4 fragment for SPR
T1 sequence: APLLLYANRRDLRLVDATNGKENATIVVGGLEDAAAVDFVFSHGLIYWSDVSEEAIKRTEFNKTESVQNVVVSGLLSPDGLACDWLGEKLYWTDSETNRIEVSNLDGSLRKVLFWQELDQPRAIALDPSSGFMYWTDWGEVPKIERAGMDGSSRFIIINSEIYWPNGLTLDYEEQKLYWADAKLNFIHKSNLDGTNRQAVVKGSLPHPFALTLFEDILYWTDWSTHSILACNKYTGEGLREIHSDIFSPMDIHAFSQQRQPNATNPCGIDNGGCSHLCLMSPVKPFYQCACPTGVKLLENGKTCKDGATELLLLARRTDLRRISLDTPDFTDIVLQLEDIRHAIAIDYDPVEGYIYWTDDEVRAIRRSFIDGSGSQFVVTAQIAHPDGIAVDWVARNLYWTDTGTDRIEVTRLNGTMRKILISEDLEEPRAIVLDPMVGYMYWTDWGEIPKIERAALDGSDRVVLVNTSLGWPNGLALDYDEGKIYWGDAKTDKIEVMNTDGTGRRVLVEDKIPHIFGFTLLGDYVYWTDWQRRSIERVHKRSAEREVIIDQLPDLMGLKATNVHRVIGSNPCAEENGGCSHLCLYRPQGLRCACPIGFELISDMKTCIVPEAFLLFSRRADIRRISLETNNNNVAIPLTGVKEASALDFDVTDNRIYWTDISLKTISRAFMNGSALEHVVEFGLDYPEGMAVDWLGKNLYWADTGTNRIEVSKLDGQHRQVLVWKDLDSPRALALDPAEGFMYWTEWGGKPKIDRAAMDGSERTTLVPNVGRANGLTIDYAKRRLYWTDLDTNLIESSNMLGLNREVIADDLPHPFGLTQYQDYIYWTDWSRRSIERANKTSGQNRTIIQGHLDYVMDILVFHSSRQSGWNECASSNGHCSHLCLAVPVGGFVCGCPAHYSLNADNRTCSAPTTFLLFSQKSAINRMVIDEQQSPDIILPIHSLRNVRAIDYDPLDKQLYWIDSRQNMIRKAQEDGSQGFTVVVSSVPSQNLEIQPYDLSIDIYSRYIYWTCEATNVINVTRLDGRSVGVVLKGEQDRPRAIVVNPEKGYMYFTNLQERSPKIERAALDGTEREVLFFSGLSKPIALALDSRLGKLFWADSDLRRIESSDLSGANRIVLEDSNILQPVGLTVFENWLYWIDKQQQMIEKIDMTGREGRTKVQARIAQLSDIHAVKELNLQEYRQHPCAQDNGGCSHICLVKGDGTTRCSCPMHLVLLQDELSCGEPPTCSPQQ
Put plainly: SPR (BIAcore), full length IgG; LRP6 construct not stated; affinity-matured clone, full length human IgG.

Another test addresses LRP6 on HEK293 cells (human, UniProt O75581 20-1613). The experiment in a line: cell-based or functional assay.
The target in another test is LRP6.E1-E2-Fc (human). Put plainly: ELISA.
Another test concerns the target T2, LRP6.E3-E4-Fc (human).
T2 construct: also called LRP6.E3-4-Fc
The experiment in a line: ELISA.

The target in test [2] is T3, His-tagged LRP6.E3-E4 protein (human, UniProt O75581 629-1244).
T3 construct: also called LRP6.E3-4-His; printed once as LRP3.E3-E4; not shown: His tag
T3 sequence: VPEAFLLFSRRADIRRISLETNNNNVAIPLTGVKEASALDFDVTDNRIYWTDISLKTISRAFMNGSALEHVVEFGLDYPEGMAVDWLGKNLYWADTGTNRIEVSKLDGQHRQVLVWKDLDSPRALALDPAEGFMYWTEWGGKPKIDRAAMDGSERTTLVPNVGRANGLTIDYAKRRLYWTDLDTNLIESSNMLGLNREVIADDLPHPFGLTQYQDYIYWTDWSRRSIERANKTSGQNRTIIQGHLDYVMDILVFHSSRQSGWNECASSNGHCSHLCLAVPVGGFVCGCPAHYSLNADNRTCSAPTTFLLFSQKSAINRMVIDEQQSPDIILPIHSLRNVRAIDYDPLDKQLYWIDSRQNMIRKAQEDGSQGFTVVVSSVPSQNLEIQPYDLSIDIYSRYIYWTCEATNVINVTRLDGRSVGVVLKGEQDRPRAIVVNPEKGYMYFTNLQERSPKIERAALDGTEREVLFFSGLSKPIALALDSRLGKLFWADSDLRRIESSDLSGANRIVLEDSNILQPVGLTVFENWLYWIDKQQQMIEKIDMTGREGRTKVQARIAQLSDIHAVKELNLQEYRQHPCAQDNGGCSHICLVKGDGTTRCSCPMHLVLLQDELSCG
Put plainly: phage competition ELISA, phage-displayed clone.

Test [3] addresses T4, LRP6.E3-E4 fragment (biotinylated, His-tagged) (Homo sapiens (Human), UniProt O75581 629-1244, biotinylated (AviTag system)).
T4 construct: BLI antigen from baculovirus-infected insect cells; also called LRP6.E3-E4 protein; not shown: His tag and AviTag
T4 sequence: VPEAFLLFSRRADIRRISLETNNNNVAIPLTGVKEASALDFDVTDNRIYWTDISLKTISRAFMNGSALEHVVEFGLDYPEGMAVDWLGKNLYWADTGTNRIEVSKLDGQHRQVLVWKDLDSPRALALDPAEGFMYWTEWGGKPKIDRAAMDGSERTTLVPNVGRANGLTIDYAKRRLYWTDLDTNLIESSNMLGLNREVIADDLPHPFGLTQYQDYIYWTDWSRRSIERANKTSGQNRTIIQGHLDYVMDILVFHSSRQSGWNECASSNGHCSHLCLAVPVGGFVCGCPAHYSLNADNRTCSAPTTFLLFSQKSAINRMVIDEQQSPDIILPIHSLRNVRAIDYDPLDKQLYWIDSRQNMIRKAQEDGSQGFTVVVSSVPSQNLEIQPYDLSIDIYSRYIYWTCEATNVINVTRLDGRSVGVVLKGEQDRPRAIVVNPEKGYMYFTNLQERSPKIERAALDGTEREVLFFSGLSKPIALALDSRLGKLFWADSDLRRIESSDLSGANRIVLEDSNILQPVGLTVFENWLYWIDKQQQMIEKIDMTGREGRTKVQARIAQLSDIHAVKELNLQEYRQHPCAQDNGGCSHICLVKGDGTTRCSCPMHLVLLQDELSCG
The experiment in a line: biolayer interferometry, immobilized LRP6 E3-E4 fragment; Wnt3a at 200 nM; association then dissociation phase. The protocol: Biolayer interferometry was performed as previously described (Bourhis et al., 2010). Briefly, biotinylated, His-tagged LRP6 proteins were purified from baculovirus-infected insect cells using the AviTag system (GeneCopoeia). Binding kinetics were measured on the Octet RED System (ForteBio) using Streptavidin High Binding FA Biosensors loaded with 20 μg/ml LRP6 protein.
In these assays, antibody binding to LRP6 protein was allowed to reach equilibrium, and the subsequent wavelength shift in the interference pattern is shown for association and dissociation phases of Wnt protein binding.

T2 sequence (chain, as listed by the source limits assumed): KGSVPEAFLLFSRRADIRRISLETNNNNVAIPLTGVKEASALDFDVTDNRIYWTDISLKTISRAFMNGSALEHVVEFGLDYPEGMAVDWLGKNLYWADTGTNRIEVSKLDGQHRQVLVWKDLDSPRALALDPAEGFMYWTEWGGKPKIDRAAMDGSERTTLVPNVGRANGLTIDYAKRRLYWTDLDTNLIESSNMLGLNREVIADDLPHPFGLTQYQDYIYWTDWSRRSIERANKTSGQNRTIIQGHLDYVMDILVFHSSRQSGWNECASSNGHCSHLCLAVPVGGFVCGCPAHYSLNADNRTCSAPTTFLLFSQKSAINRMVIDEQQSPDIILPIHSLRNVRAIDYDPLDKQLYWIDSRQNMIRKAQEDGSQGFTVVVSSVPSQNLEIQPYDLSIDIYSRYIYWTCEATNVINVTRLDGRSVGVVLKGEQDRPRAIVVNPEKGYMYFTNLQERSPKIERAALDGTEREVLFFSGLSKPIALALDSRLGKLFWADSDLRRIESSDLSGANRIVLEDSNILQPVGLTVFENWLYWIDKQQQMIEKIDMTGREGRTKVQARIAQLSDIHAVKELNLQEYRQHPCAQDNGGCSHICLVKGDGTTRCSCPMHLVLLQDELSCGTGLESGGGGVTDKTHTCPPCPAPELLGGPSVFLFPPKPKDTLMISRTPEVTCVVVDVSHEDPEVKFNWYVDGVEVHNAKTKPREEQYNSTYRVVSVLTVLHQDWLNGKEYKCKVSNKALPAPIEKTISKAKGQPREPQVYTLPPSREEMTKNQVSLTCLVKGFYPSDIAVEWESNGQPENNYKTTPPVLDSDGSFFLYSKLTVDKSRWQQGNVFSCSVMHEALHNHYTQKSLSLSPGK
Chain of LRP6.E1-E2-Fc (human) (chain, as listed by the source limits assumed): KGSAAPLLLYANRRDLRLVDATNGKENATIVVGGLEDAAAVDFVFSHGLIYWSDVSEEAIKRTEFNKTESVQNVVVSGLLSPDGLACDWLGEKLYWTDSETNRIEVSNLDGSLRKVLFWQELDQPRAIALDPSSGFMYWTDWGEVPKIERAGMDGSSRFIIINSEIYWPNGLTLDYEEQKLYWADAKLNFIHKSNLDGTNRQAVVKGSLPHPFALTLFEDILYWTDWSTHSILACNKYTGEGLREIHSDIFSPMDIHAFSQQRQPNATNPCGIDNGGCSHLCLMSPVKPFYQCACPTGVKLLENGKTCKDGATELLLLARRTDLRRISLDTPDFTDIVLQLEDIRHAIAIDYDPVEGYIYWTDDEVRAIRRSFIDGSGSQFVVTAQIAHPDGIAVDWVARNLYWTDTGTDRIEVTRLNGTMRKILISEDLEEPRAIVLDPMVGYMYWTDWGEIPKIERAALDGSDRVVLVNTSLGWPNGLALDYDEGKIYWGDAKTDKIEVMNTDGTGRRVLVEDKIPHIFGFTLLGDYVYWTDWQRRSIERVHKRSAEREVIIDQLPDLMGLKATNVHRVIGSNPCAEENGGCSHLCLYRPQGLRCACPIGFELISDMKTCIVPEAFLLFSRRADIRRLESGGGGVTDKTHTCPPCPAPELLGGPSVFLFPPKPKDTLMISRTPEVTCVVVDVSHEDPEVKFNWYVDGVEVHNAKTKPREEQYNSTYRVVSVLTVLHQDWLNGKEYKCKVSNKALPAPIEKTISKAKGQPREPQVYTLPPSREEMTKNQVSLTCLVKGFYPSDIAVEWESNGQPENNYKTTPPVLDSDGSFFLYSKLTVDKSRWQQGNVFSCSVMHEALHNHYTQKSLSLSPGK

B1: YW211.31.57 antibody (antibody, human IgG1, kappa, V domains shown)
VH: EVQLVESGGGLVQPGGSLRLSCAASGFTFTSYYISWVRQAPGKGLEWVAEISPYSGSTYYADSVKGRFTISADTSKNTAYLQMNSLRAEDTAVYYCALRARPPIRLYPRGSVMDYWGQGTLVTVSS
VL: DIQMTQSPSSLSASVGDRVTITCRASQDVSTAVAWYQQKPGKAPKLLIYSASFLYSGVPSRFSGSGSGTDFTLTISSLQPEDFATYYCQQSYTLPTTFGQGTKVEIKR
Consider B1, for which binding in test [1] was characterised by a dissociation constant (Kd) of 0.27 nM. The “IC50, inhibition of signaling in Wnt3a-stimulated HEK293 cells” value with LRP6 on HEK293 cells is ~0.1 µg/ml and ~0.6 nM.

B2: YW211.33 antibody (antibody, V domains shown)
VH: EVQLVESGGGLVQPGGSLRLSCAASGFTFSGSSISWVRQAPGKGLEWVGVISPSSGATYYADSVKGRFTISADTSKNTAYLQMNSLRAEDTAVYYCARWPAGAFLGYYGMDYWGQGTLVTVSS
VL: DIQMTQSPSSLSASVGDRVTITCRASQDVSTAVAWYQQKPGKAPKLLIYSASFLYSGVPSRFSGSGSGTDFTLTISSLQPEDFATYYCQQSYTTPPTFGQGTKVEIKR
Turning to B2, the binding result was “no binding” with LRP6.E1-E2-Fc and “binds” in the test with LRP6.E3-E4-Fc.

B3: YW211.12 antibody (antibody, V domains shown)
VH: EVQLVESGGGLVQPGGSLRLSCAASGFTFTGNDIHWVRQAPGKGLEWVGRIYPYGGYTDYADSVKGRFTISADTSKNTAYLQMNSLRAEDTAVYYCAKEVTYHLFDYWGQGTLVTVSS
VL: DIQMTQSPSSLSASVGDRVTITCRASQDVSTAVAWYQQKPGKAPKLLIYSASFLYSGVPSRFSGSGSGTDFTLTISSLQPEDFATYYCQQSYTTPPTFGQGTKVEIKR
On to B3, for which the results for the binding result in the test with LRP6.E1-E2-Fc and with LRP6.E3-E4-Fc were “no binding” and “binds”, respectively.

B4: YW211.08 antibody (antibody, V domains shown)
VH: EVQLVESGGGLVQPGGSLRLSCAASGFTFTDYWIHWVRQAPGKGLEWVAGISPDGGSTYYADSVKGRFTISADTSKNTAYLQMNSLRAEDTAVYYCARWSYISRYFSSVMDYWGQGTLVTVSS
VL: DIQMTQSPSSLSASVGDRVTITCRASQDVSTAVAWYQQKPGKAPKLLIYSASFLYSGVPSRFSGSGSGTDFTLTISSLQPEDFATYYCQQSYTTPPTFGQGTKVEIKR
As to B4, the binding result with LRP6.E1-E2-Fc is given as “no binding”; with LRP6.E3-E4-Fc it was “binds”.

B5: YW211.11 antibody (antibody, V domains shown)
VH: EVQLVESGGGLVQPGGSLRLSCAASGFTFTNYDIHWVRQAPGKGLEWVASIYPAGGDTDYADSVKGRFTISADTSKNTAYLQMNSLRAEDTAVYYCARSPGWALRGAMDYWGQGTLVTVSS
VL: DIQMTQSPSSLSASVGDRVTITCRASQDVSTAVAWYQQKPGKAPKLLIYSASFLYSGVPSRFSGSGSGTDFTLTISSLQPEDFATYYCQQSYTTPPTFGQGTKVEIKR
B5: the binding result with LRP6.E1-E2-Fc is recorded as “no binding”; with LRP6.E3-E4-Fc it was “binds”.

B6: YW211.31.11 antibody (antibody, V domains shown)
VH: EVQLVESGGGLVQPGGSLRLSCAASGFTFGFYYLSWVRQAPGKGLEWVAEISPYSGSTYYADSVKGRFTISADTSKNTAYLQMNSLRAEDTAVYYCALRARPPIRLHPRGSVMDYWGQGTLVTVSS
VL: DIQMTQSPSSLSASVGDRVTITCRASQDVSTAVAWYQQKPGKAPKLLIYSASFLYSGVPSRFSGSGSGTDFTLTISSLQPEDFATYYCQQSYAIPTTFGQGTKVEIKR
B6: the binding result in test [2] is listed as “binds”.

B7: YW211.03 antibody (antibody, V domains shown)
VH: EVQLVESGGGLVQPGGSLRLSCAASGFTFTGYWIHWVRQAPGKGLEWVGTISPAGGSTDYADSVKGRFTISADTSKNTAYLQMNSLRAEDTAVYYCARTDWRFHHAGEYAMDYWGQGTLVTVSS
VL: DIQMTQSPSSLSASVGDRVTITCRASQDVSTAVAWYQQKPGKAPKLLIYSASFLYSGVPSRFSGSGSGTDFTLTISSLQPEDFATYYCQQSYTTPPTFGQGTKVEIKR
For the molecule B7, the binding result with LRP6.E1-E2-Fc is reported as “no binding”; in the test with LRP6.E3-E4-Fc it was “binds”.

B8: YW211.31.35 antibody (antibody, V domains shown)
VH: EVQLVESGGGLVQPGGSLRLSCAASGFTFGFYYISWVRQAPGKGLEWVAEISPYSGSTYYADSVKGRFTISADTSKNTAYLQMNSLRAEDTAVYYCALRARPPIRLHPRGSVMDYWGQGTLVTVSS
VL: DIQMTQSPSSLSASVGDRVTITCRASQDVSTAVAWYQQKPGKAPKLLIYSASFLYSGVPSRFSGSGSGTDFTLTISSLQPEDFATYYCQQSYTTPPTFGQGTKVEIKR
Turning to B8, in test [2], the binding result is recorded as “binds”.

B9: YW211.31.62 antibody (antibody, human IgG1, kappa, V domains shown)
VH: EVQLVESGGGLVQPGGSLRLSCAASGFTFGYYYISWVRQAPGKGLEWVAEISPYSGSTYYADSVKGRFTISADTSKNTAYLQMNSLRAEDTAVYYCALRARPPIRLHPRGSVMDYWGQGTLVTVSS
VL: DIQMTQSPSSLSASVGDRVTITCRASQDVSTAVAWYQQKPGKAPKLLIYSASFLYSGVPSRFSGSGSGTDFTLTISSLQPEDFATYYCQQSYTTPPTFGQGTKVEIKR
In turn, B9 displayed a Kd in test [1] of 0.17 nM. Moreover, in the test with LRP6 on HEK293 cells, the “IC50, inhibition of signaling in Wnt3a-stimulated HEK293 cells” value was ~0.1 µg/ml and ~0.6 nM.

B10: Wnt3a (ligand, human, UniProt P56704 19-352, looked up)
chain: SYPIWWSLAVGPQYSSLGSQPILCASIPGLVPKQLRFCRNYVEIMPSVAEGIKIGIQECQHQFRGRRWNCTTVHDSLAIFGPVLDKATRESAFVHAIASAGVAFAVTRSCAEGTAAICGCSSRHQGSPGKGWKWGGCSEDIEFGGMVSREFADARENRPDARSAMNRHNNEAGRQAIASHMHLKCKCHGLSGSCEVKTCWWSQPDFRAIGDFLKDKYDSASEMVVEKHRESRGWVETLRPRYTYFKVPTERDLVYYEASPNFCEPNPETGSFGTRDRTCNVSSHGIDGCDLLCCGRGHNARAERRREKCRCVFHWCCYVSCQECTRVYDVHTCK
notes: also called purified human Wnt3a
With B10, in test [3], the binding result is recorded as “binds”.
